Source: patent US20190153113A1, “CD39 VASCULAR ISOFORM TARGETING AGENTS” (INNATE PHARMA, priority 2015, published 2019)
Where a chain is given by its changes, count along the chain named. Names may count otherwise. Each block holds one molecule with its values, some of them ahead of it.

What was measured:
[1] = molecular target: T1, CD39 mutant 19 (R138A, M139A, E142K) (human, UniProt P49961 1-510); assay: flow cytometry, HEK293T cells transfected with mutant 19
T1 construct: Transfected in HEK293T cells
T1 chain: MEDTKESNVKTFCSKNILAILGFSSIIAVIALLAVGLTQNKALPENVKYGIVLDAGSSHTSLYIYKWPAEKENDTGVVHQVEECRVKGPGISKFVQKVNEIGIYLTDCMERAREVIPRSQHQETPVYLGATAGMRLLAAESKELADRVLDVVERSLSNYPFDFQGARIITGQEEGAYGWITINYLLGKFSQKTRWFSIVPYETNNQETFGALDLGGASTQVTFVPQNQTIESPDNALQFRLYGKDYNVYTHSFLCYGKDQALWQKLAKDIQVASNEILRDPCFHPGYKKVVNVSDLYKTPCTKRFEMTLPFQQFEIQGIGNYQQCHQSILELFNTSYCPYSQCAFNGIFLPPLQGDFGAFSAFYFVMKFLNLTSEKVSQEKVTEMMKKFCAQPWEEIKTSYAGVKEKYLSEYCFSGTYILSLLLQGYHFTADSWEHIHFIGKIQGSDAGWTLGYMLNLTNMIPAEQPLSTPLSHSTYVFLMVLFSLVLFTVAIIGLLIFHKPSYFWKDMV

[2] = molecular target: T2, Recombinant human CD39-L2 (NTPDase6, ENTPD6) (human, UniProt O75354 61-484, limits assumed); assay: ELISA on coated RechuCD39-L2, OD 450 nm [top panel CHS2-I-391]
T2 construct: Coated in ELISA
T2 sequence: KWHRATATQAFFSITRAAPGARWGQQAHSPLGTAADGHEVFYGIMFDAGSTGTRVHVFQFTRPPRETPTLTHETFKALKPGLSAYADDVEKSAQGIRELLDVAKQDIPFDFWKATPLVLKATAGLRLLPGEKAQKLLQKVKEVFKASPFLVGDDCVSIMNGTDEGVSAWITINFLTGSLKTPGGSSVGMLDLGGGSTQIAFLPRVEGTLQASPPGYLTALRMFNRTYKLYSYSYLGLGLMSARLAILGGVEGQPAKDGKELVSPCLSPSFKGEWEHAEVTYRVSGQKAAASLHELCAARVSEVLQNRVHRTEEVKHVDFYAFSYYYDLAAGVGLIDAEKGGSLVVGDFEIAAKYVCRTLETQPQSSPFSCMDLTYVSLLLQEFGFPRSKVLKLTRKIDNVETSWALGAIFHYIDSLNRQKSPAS
Experimental: (§1) Wells were washed in TBS Tween 20, and further saturated 2H at RT in TBS Blocking buffer. Dose range concentration of primary antibody was incubated in TBS blocking buffer for 2h at RT. Wells were washed in TBS Tween 20. […] Optical density was measured on Enspire at OD=450.

[3] = molecular target: T3, Cynomolgus CD39 expressed on HEK cells (cynomolgus, UniProt A0A7N9DGH8 1-510); assay: flow cytometry on HEK cells expressing cynomolgus CD39, antibody 99 nM to 0.045 nM (FIG. 1 legend says ELISA)
T3 construct: whole, on cells; also called cynoCD39; cynomolgus vascular CD39
T3 sequence: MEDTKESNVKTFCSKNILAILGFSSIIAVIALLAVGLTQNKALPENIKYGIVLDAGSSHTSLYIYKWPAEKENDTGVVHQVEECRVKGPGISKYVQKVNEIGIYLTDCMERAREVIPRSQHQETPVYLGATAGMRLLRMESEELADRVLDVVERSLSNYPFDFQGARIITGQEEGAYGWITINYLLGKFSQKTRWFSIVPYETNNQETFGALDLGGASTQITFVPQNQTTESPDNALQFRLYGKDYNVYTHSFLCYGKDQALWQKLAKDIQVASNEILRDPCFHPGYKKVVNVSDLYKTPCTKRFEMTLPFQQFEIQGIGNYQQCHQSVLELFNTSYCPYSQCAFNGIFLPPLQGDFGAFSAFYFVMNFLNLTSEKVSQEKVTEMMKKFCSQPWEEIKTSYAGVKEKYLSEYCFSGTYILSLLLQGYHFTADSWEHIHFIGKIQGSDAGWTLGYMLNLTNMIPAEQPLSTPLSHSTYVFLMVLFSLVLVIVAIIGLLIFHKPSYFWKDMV
Experimental: Briefly, 1×10⁵ HEK-huCD39or cynoCD39 cells were incubated with various concentration of unlabeled anti-CD39 antibody or isotype control (IC) from 99 nM to 0.045 nM, for 30 minutes at 4° C. After washes, cells were incubated with Goat anti-mouse H+L labeled secondary antibody for 30 min at 4° C.

CD39-L4 = molecular target: T4, CD39-L4 (Homo sapiens, UniProt O75356); assay: ELISA titration on recombinant human CD39 isoforms; type: binding; conditions: recombinant protein coated
T4 sequence (O75356 25-428): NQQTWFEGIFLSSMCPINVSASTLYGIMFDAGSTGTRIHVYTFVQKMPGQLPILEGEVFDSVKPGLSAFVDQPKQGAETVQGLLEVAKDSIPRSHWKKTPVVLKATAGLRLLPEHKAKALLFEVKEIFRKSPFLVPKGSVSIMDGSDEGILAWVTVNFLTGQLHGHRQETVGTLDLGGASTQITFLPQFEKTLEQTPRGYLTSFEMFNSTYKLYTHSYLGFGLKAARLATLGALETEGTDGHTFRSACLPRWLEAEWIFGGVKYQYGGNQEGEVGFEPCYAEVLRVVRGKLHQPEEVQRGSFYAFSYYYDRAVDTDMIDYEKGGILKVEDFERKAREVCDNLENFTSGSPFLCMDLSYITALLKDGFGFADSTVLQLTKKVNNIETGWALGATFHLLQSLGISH
Experimental: as §1

[4] = molecular target: T5, human CD39 at cell surface (Homo sapiens, UniProt P49961); assay: CD39 down-modulation / internalization on Ramos cells; type: cell-based; conditions: Ramos human lymphoma cells, 10 μg/ml, 4° C. or 37° C.
T5 construct: cells that endogenously express CD39 at their surface, e.g. regulatory T (TReg) cells, B cells, cancer cells, lymphoma cells (e.g. Ramos cells); endogenous in cells; host or cells: Ramos human lymphoma cells
T5 sequence (P49961 1-510): T1 chain with A138R, A139M, K142E

binding result [1]: binds
binding result [2]: no binding (tested: 50 ug/ml)
EC50 [3]: 10.6 nM
B1: Antibody I-391, Fc silent recombinant chimeric human IgG1 with heavy chain N297Q mutation (antibody, V domains shown)
VH: QIQLVQSGPELKKPGETVKISCKASGYTFRNYGMNWVKQAPGKGLKWMGWINTYTGEPTYADDFKGRFAFSLATSASTAYLQISNLKNEDTATYFCARKAYYGSNYYFDYWGQGTTLTVSS
VL: DIVMTQSHKFMSTSVGDRVSITCKASQDVSTAVAWYQQKPGQSPKLLIYSASYRYTGVPDRFTGSGSGTDFTFTISTVQAEDLAVYYCQQHYTTPPYTFGGGTKLEIKR

binding to CD39-L4 (CD39-L4): not to any of the CD39 isoforms
B2: I-392: anti-CD39 antibody, VH SEQ ID NO: 8 and VL SEQ ID NO: 9, chimeric human IgG1 with N297Q mutation (antibody, V domains shown)
VH: QIQLVQSGPEVKKPRETVKISCKASGYTFTHYGMNWVKQAPGKGLKWMGWINTYTGEPTYADDFKGRFAFSLEASASTAYLQINNLKNEDTATYFCARRRYEGNYVFYYFDYWGQGTTLTVSS
VL: DIQMTQSPASLSASVGETVTITCRASENIYSYFSWYQQKQGKSPQLLVYTAKTLAEGVPSRFSGSGSGTQFSLKINSLQPEDFGSYYCQHHYVTPYTFGGGTKLEIK
CD39 down modulation / internalization [4]: do not induce CD39 down modulation nor CD39 internalization
